This is an account of results in patent US20160002326A1.

Assay [1] has as its target rabbit IL-17 (rabbit). The assay is described as follows: cell-based or functional assay.
In assay [2] the target is rabbit IL-17 (rabbit). Kind of assay: Biacore SPR, 3 experiments; unit not printed in Table 10. On the technique in general: SPR reads the build-up and loss of mass on a sensor chip optically.
The target of the next assay is mouse IL-17 (mouse) (UniProt Q62386). Kind of assay: assay not stated (Table 5, 'Source And Binding Information').
Chain of mouse IL-17 (mouse) (Q62386 26-158 limits assumed): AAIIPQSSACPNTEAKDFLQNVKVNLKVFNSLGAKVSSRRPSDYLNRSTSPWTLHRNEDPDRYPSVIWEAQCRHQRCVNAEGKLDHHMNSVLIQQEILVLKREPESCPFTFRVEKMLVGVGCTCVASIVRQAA

Chain of ABBV-257 anti-human TNF and IL-17 DVD-Ig binding protein (bispecific antibody) (heavy): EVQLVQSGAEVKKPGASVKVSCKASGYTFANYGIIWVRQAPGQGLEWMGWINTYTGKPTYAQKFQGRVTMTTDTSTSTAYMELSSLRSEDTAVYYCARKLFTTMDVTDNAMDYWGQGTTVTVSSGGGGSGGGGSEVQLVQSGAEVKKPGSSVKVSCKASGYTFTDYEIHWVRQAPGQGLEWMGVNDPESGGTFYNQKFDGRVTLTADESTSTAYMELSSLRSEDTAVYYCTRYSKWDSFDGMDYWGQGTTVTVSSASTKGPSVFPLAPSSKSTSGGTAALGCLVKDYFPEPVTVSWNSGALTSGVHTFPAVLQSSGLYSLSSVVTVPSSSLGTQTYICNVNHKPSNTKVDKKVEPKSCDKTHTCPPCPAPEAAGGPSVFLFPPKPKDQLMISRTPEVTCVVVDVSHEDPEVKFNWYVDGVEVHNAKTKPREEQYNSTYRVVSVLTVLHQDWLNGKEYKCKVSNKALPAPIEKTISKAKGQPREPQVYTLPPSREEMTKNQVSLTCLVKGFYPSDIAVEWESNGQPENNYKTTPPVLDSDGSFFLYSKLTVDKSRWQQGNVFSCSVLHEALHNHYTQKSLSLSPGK
Chain of ABBV-257 anti-human TNF and IL-17 DVD-Ig binding protein (bispecific antibody) (light): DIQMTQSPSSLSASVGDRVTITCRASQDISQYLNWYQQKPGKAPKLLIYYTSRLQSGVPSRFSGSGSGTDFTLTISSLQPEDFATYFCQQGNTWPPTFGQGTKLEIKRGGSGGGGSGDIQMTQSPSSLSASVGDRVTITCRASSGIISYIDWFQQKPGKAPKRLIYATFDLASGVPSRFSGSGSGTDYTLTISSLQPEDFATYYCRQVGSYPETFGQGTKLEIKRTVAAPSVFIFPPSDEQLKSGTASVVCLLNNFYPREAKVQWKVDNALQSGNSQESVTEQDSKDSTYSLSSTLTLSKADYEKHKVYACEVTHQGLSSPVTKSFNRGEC

A word on the Kd: it is a measure of binding affinity in units of concentration. The low end stands for a tighter complex, the high end for a looser complex. Turning to “ABBV-257 anti-human TNF and IL-17 DVD-Ig binding protein (bispecific antibody)”, in the assay with rabbit IL-17 (rabbit) [1], the IC50, in vitro neutralization assay (In-Vitro Potency) came out at 11.4 nM. The Kd with rabbit IL-17 (rabbit) [2] was determined as 3.3 nM. In general, IC50 refers to the point on the concentration scale where inhibition reaches its midpoint. A higher IC50 goes with weaker potency in that assay. As for MAB421 anti-IL-17 antibody, the IC50 with mouse IL-17 (mouse) was found to be 0.7 nM.
